“Also recorded” adds a separate entry of the source. [ ]: non-standard residue; d: D form. The star is where a group is joined. Biotin = O=C1N[C@H]2[C@H](CS[C@H]2CCCCC(=O)*)N1; NHPr = CCCN*

Series [1] is described as follows: Macro-scale scaffold formation upon exposure to PBS / neutral pH buffer. Format: physicochemical. As to conditions: upon exposure to PBS (1×) / neutral pH buffer. The source says: The tested peptides solutions appearance ranged from peptides giving clear liquid is solutions (e.g. 4, B15, B19, B25, B28, 30) to samples which become opaque in 1 to 7 days after dissolution (e.g. B3, B17, B22, B24, B27, 31) as shown in FIG. 2a (I). Most of the liquid solutions increased in viscosity over the first week after dissolution, however after ten days in water no appreciable changes happened at the macroscale.
(§1) Nonetheless, keeping constant the observation time, the storage moduli of peptide solutions previously dissolved (the day before) at 3% w/v were measured. Measurements were obtained of these peptide solutions, further diluted to 1% w/v at the same day of the experiment (unless otherwise specified), and, after addition of PBS, of the formed scaffolds.

A short description of series [2]: Self-healing tests of assembled scaffolds after mechanical rupture. Format: physicochemical. Particulars: recovery of scaffold stiffness after mechanical rupture. As for the experimental part: (§2) Rheological properties were determined for the peptides of the invention, using a controlled stress TA Instruments AR-2000ex rheometer (TAInstruments). A cone-and-plate geometry (acrylic cone diameter, 20 mm; angle, 1°; truncation gap 34 μm) was used. All measurements were obtained at a constant monitored temperature of 25° C. Preliminary strain sweeps were performed for each sample to define the linear viscoelastic region, thus ensuring that moduli were independent of strain. Time sweeps, after addition of PBS (1×) were recorded at constant angular frequency (ω=1 Hz). Frequency sweeps, both for peptide water solutions and for self-assembled scaffolds, were performed with the instrument in oscillatory mode at controlled strain of 1%. Final: onset point of rupture was calculated by linear interpolation and subsequent determination of the intersection of the G′ modes in the linear region and at material rupture respectively. G′ values were averaged in the 1-100 Hz region and between n=3 independent replicates. During self-healing tests the self-assembled scaffold was torn by applying a strain sweep (0.01%-1000% strain range) at 1 Hz oscillatory frequency. G′ values were is recorded in frequency sweep mode (at 1% strain) or, in time sweep mode (at 1 Hz and at 1% strain), before and after the strain sweep step, subsequent observations were performed every half hour or, in case of time sweep test, every 30 seconds. In all of the SAPs the difference between the storage moduli measured before and after PBS addition spanned from two to four orders of magnitude, proving the dramatic biomechanical changes taking place during scaffold gelation. Peptide B3 (1%) yielded a solid stiff scaffold (G′=2917 Pa), supporting the idea that ionic charges may screen the electrostatic repulsions given by positively charged lysine residues and speed up the spontaneous ongoing self-assembling process, on its turn giving an already viscous (G′=67 Pa) and opaque solution at day 1. Among the peptides giving soft scaffold (100 Pa-1000 Pa range) peptides 4, B19, B25, B28 and 30 were included. On the opposite side, SAPs yielding solid stiff scaffolds are B15, B22, B24, B27 and 31 (5000 Pa-9000 Pa range).
Solid scaffolds were obtained via addition of PBS (1×) in a cone-and-plate rheometer; we measured the storage modulus, the samples were subjected to a strain sweep (0.01% to 1000%) until and far beyond rupture occurred (i.e. is monitoring the sudden drop of G′ value). Samples were then left in place (keeping them hydrated with PBS) and their G′ were measured every 30 minutes via frequency sweep tests in the range of 0.1 Hz to 60 Hz. As a negative control KLD-12, a well-known SAP, was tested (4, 6). […] In FIG. 6b peptide B25 (3% w/v concentration) was assessed for self-healing in a time sweep mode, every 30 seconds, at 1 Hz and at 1% strain. Values of G′ recovered after 100 minutes (1000 Pa) and steadily plateaued over time. For peptides B3, B22, B25 and B27 full recovery was obtained at different time intervals after rupture, ranging from 60′ to 240′. Similar results were confirmed by multiple independent experiments, but at different time ranges, for all of the self-assembling peptides except for B19 and B28.
Samples were checked for rupture by tilting. After a maximum of four hours all of the samples returned to their solidified gel appearance. This healing could be repeated at will.

Series [3] concerns human Neural Stem Cells (hNSCs). Put plainly: CellTiter 96 Aqueous Proliferation Assay of hNSCs on self-assembled scaffolds. In kind it is cell-based. Particulars: 7 DIV, n=6, versus negative control (plastic). As for the experimental part:
Neural precursor cultures are established and expanded as previously described (15, 16). Human neural stem cells (NSCs) were isolated from the central nervous system, in particular from the diencephalon and the cerebral cortex of human brain 10.5 weeks from conception. The modalities for obtaining the primary tissue are in agreement with the guidelines of the European Network for Transplantation (NECTAR).
(§3) In vitro tests were performed following a previously adopted methodology (5). Briefly, cells (at a concentration of 6×10^4 cells/cm^2) were seeded on the top-surface of each assembled scaffold previously assembled into 96 multiwells. Initially, cells were cultured with basal medium supplemented with βFGF (10 ng/ml), added to enhance neuronal progeny differentiation. At 3 days in vitro (DIV), βFGF medium was replaced with Leukemia Inhibitory Factor (LIF, Chemicon) (20 ng/ml) and Brain Derived Neurotrophic Factor (BDNF, Peprotech) (20 ng/ml). Fresh medium was added every three days. Positive and negative controls consisted of CULTREX-BME® substrate (R&D systems) (1:100 dilution in basal medium) and untreated bottom well surfaces respectively.
Cell viability was quantified via […] 96® Aqueous Proliferation Assay (Promega, Madison, Wis.) at 7 DIV as recommended in the Promega protocol. After calibrating the linear response between the cell number and absorbance values, proliferated cell populations were quantified (n=6) by using a Vmax microplate reader (Molecular Devices, Sunnyvale, Calif.) at 490 nm wavelength. Values, reported as means±standard error of the mean, were blanked to their respective controls consisting of same substrates and cell culture media without cells.
(§4) To assess the potential of the proposed SAPs for cell cultures and, more generally, for regenerative medicine, a two-dimensional cell culture protocol already developed for RADA16-I-like peptides was adapted (5). Briefly, human Neural Stem Cells (hNSCs), mechanically dissociated 1 day before plating, were seeded and cultured for one week in vitro over self-assembled scaffolds of B3, 4, B15, B17, B19, B22, B24, B25, B27, B28, 30, 31 and over non-coated tissue culture plastic wells (negative control).

The test system is the same in series [4]. Put plainly: Phase contrast imaging of hNSC morphology on scaffolds. Format: cell-based. Particulars: 7 days in vitro. The method, then:
as §3, §4

Series [5] can be described thus: Rheological tests (storage modulus G′, cone-and-plate rheometer). In kind it is physicochemical. Particulars: for storage modulus G′ of assembled scaffold (G′ post-assembling): after PBS (1×) addition, averaged in 1-100 Hz range, 25° C., B3 at 1%. As for the experimental part:
as §2
The mechanical properties of the synthesized peptides were tested with a cone-and-plate rheometer. Firstly, the G′ dependence of peptide water solutions on concentration increments, and consequently aggregation kinetics, was assessed as shown in FIG. 2b.
as §1

The nature of series [6]: Solubility and behaviour on dissolution in water. In kind it is physicochemical. The source says:
All of the synthesized peptides are soluble at 1% w/v concentration in distilled water and in acid (0.1 M HCl) solutions.

Regarding “Ac-WGGGAFSSTKT-CONH2 (Ac-WGGGAFSSTKT-NH2) [peptide 31]”, the “solid scaffold / hydrogel formation” value in series [1] is reported as “yielded solid scaffolds”. Moreover, the self-healing property result in series [2] was “self-healing property has been seen”. Besides, the “living cell population / hNSC viability (CellTiter assay)” value (“living cell population / hNSC viability” for short) in series [3] is on record as “comparable to the biotinilated peptides”. Besides, the “cell morphology / degree of spreading” value in series [4] is on record as “branched cells”.

For the substance “Ac-WGGGPFSSTKT-CONH2 (Ac-WGGGPFSSTKT-NH2) [peptide 4]”, the “solid scaffold / hydrogel formation” value in series [1] was “yielded solid scaffolds”. Besides, the self-healing property result in series [2] is given as “self-healing property has been seen”. Moreover, the “living cell population / hNSC viability” value in series [3] was “comparable to the biotinilated peptides”.

Consider “Biot-GGG(Propylamine)FSSTKT-CONH2 (Biotin-GGG[NHPr]FSSTKT-NH2) [peptide B28]”, for which the “minimum necessary peptide concentration for gelation” value in series [5] is reported as 3 % w/v. The “solid scaffold / hydrogel formation” value in series [1] is “yielded solid scaffolds”. Also, in series [3], the “living cell population / hNSC viability” value is on record as “cell population comparable to those of the other peptides”. Further, in series [4], the “cell morphology / degree of spreading” value is reported as “proliferated cell clusters”.

Regarding “Biot-GGGAFSSTKT-CONH2 (Biotin-GGGAFSSTKT-NH2; SMILES C[C@H](NC(=O)CNC(=O)CNC(=O)CNC(=O)CCCC[C@@H]1SC[C@@H]2NC(=O)N[C@@H]21)C(=O)N[C@@H](Cc1ccccc1)C(=O)N[C@@H](CO)C(=O)N[C@@H](CO)C(=O)N[C@H](C(=O)N[C@@H](CCCCN)C(=O)N[C@H](C(N)=O)[C@@H](C)O)[C@@H](C)O) [B15]”, the “storage modulus G′ of assembled scaffold (G′ post-assembling)” value in series [5] is 8500 Pa. The “solid scaffold / hydrogel formation” value in series [1] was “yielded solid scaffolds”. Moreover, in series [2], the self-healing property entry was “self-healing property has been seen”. The “living cell population / hNSC viability” value in series [3] is “biggest living cell populations, significantly different from negative control”. Further, the “cell morphology / degree of spreading” value in series [4] is given as “branched cells”.

For “Biot-GGGAFSSTKTGRGD-CONH2 (Biotin-GGGAFSSTKTGRGD-NH2; SMILES C[C@H](NC(=O)CNC(=O)CNC(=O)CNC(=O)CCCC[C@@H]1SC[C@@H]2NC(=O)N[C@@H]21)C(=O)N[C@@H](Cc1ccccc1)C(=O)N[C@@H](CO)C(=O)N[C@@H](CO)C(=O)N[C@H](C(=O)N[C@@H](CCCCN)C(=O)N[C@H](C(=O)NCC(=O)N[C@@H](CCCNC(=N)N)C(=O)NCC(=O)N[C@@H](CC(=O)O)C(N)=O)[C@@H](C)O)[C@@H](C)O) [B19]”, the “solid scaffold / hydrogel formation” value in series [1] is given as “yielded solid scaffolds”. Further, in series [3], the “living cell population / hNSC viability” value is “significantly different from negative control”.

As to “Biot-GGGPFSSTDT-CONH2 (Biotin-GGGPFSSTDT-NH2; SMILES C[C@@H](O)[C@H](NC(=O)[C@H](CC(=O)O)NC(=O)[C@@H](NC(=O)[C@H](CO)NC(=O)[C@H](CO)NC(=O)[C@H](Cc1ccccc1)NC(=O)[C@@H]1CCCN1C(=O)CNC(=O)CNC(=O)CNC(=O)CCCC[C@@H]1SC[C@@H]2NC(=O)N[C@@H]21)[C@@H](C)O)C(N)=O) [B10]”, the self-assembling on dissolution entry in series [6] is recorded as “immediately self-assembling with dissolution in water”.

For “Biot-GGGPFSSTET-CONH2 (Biotin-GGGPFSSTET-NH2; SMILES C[C@@H](O)[C@H](NC(=O)[C@H](CCC(=O)O)NC(=O)[C@@H](NC(=O)[C@H](CO)NC(=O)[C@H](CO)NC(=O)[C@H](Cc1ccccc1)NC(=O)[C@@H]1CCCN1C(=O)CNC(=O)CNC(=O)CNC(=O)CCCC[C@@H]1SC[C@@H]2NC(=O)N[C@@H]21)[C@@H](C)O)C(N)=O) [B12]”, in series [6], the self-assembling on dissolution result is reported as “immediately self-assembling with dissolution in water”.

Regarding “Biot-GGGPFSSTKT-CONH2 (Biotin-GGGPFSSTKT-NH2; SMILES C[C@@H](O)[C@H](NC(=O)[C@H](CCCCN)NC(=O)[C@@H](NC(=O)[C@H](CO)NC(=O)[C@H](CO)NC(=O)[C@H](Cc1ccccc1)NC(=O)[C@@H]1CCCN1C(=O)CNC(=O)CNC(=O)CNC(=O)CCCC[C@@H]1SC[C@@H]2NC(=O)N[C@@H]21)[C@@H](C)O)C(N)=O) [peptide B3]”, the “storage modulus G′ of assembled scaffold (G′ post-assembling)” value in series [5] was found to be 2917 Pa. Also, in series [5] (dissolved at 3% concentration in water), the “time for G′ of peptide solution to reach a plateau” value was 2 days. Besides, the “storage modulus G′ of peptide solution (pre-assembling)” value in series [5] (water solution at day 1, 1%, before PBS) turned out to be 67 Pa. Moreover, in series [1], the “solid scaffold / hydrogel formation” value is recorded as “shifting to solid scaffold when exposed to neutral pH buffer; also recorded: yielded solid scaffolds”. Moreover, in series [2], the self-healing property entry is on record as “self-healing property has been seen”. Moreover, the “cell morphology / degree of spreading” value in series [4] was “branched cells”.

As to “Biot-GGGPFSSTNT-CONH2 (Biotin-GGGPFSSTNT-NH2; SMILES C[C@@H](O)[C@H](NC(=O)[C@H](CC(N)=O)NC(=O)[C@@H](NC(=O)[C@H](CO)NC(=O)[C@H](CO)NC(=O)[C@H](Cc1ccccc1)NC(=O)[C@@H]1CCCN1C(=O)CNC(=O)CNC(=O)CNC(=O)CCCC[C@@H]1SC[C@@H]2NC(=O)N[C@@H]21)[C@@H](C)O)C(N)=O) [B11]”, in series [6], the self-assembling on dissolution entry was “immediately self-assembling with dissolution in water”.

In the case of “Biot-GGGPFSSTQT-CONH2 (Biotin-GGGPFSSTQT-NH2; SMILES C[C@@H](O)[C@H](NC(=O)[C@H](CCC(N)=O)NC(=O)[C@@H](NC(=O)[C@H](CO)NC(=O)[C@H](CO)NC(=O)[C@H](Cc1ccccc1)NC(=O)[C@@H]1CCCN1C(=O)CNC(=O)CNC(=O)CNC(=O)CCCC[C@@H]1SC[C@@H]2NC(=O)N[C@@H]21)[C@@H](C)O)C(N)=O) [B13]”, in series [6], the self-assembling on dissolution entry is “immediately self-assembling with dissolution in water”.

These data come from US8722850B2, “Self-assembling peptides and their use in the formation of hydrogels” (Universita' Degli Studi di Milano Bicocca, priority 2010, dated 2014).
